B1: efasCFP: cyan fluorescent protein from Eusmilia fastigiata (DQ206397), SEQ ID NO: 36 (protein, listed as Echinopora forskaliana)
chain: MSFSKQVLNDVTMTYFMEGSVNGHDFTIEGEGTGKPYEGHQRFNLRVTKGAPLPFAVDILSAAFAYGNRCFTKYPKEIPDFFKQSLPEDMSWERTMTFEDGGIVAISAHIRLIGNRFEHKSKFVGVNFPADGPVMQRKTLGWEPSSEKMTPRDGILKGYVPSFLVLQGGGNYRCDYDTSYRAMKPVEMPGGHFIQHRIVRRDIKKDSNGNTWQIQEDAFAHNSEVPDSA
B2: cpGFP: green fluorescent protein from Chiridius poppei (AB185173), SEQ ID NO: 52 (protein, listed as Chiridius poppei)
chain: MTTFKIESRIHGNLNGEKFELVGGGVGEEGRLEIEMKTKDKPLAFSPFLLSHCMGYGFYHFASFPKGTKNIYLHAATNGGYTNTRKEIYEDGGILEVNFRYTYEFNKIIGDVECIGHGFPSQSPIFKDTIVKSCPTVDLMLPMSGNIIASSYARAFQLKDGSFYTAEVKNNIDFKNPIHESFSKSGPMFTHRRVEETHTKENLAMVEYQQVFNSAPRDM
B3: phiYFP: yellow fluorescent protein from Phialidium sp. SL-2003 (AY485333), SEQ ID NO: 50 (protein)
chain: MSSGALLFHGKIPYVVEMEGNVDGHTFSIRGKGYGDASVGKVDAQFICTTGDVPVPWSTLVTTLTYGAQCFAKYGPELKDFYKSCMPEGYVQERTITFEGDGVFKTRAEVTFENGSVYNRVKLNGQGFKKDGHVLGKNLEFNFTPHCLYIWGDQANHGLKSAFKIMHEITGSKEDFIVADHTQMNTPIGGGPVHVPEYHHITYHVTLSKDVTDHRDNMSLVETVRAVDCRKTYL
modifications: Aequorea Victoria
B4: ceriantRFP: red fluorescent protein from Cerianthus sp. DW-2003 (AY296063), SEQ ID NO: 46 (protein, listed as Cerianthus sp.)
chain: MNLSKNVSVSVYMKGNVNNHEFEYDGEGGGDPYTGKYSMKMTLRGQNCLPFSYDIITTAFQYGFRVFTKYPEGIVDYFKDSLPDAFQWNRRIVFEDGGVLNMSSDITYKDNVLHGDVWAVGVNFPPNGPVMKNEIVMEEPTEETFTPKNGVLVGFCPKAYLLKDGSYYYGNMTTFYRSKKSGQAPPGYHFVKHRLVKTNVGHGFKTVEQTEYATAHVSDLPK
B5: spisCP: non-fluorescent chromoprotein from Stylophora pistillata (DQ206398), SEQ ID NO: 38 (protein, listed as Echinopora forskaliana)
chain: MSHSKQALADTMKMTWLMEGSVNGHAFTIEGEGTGKPYEGKQSGTFRVTKGGPLPFAFDIVAPTLKYGFKCFMKYPADIPDYFKLAFPEGLTYDRKIAFEDGGCATATVEMSLKGNTLVHKTNFQGGNFPIDGPVMQKRTLGWEPTSEKMTPCDGIIKGDTIMYLMVEGGKTLKCRYENNYRANKPVLMPPSHFVDLRLTRTNLDKEGLAFKLEEYAVARVLEV
B6: efofCP/RFP: protein from Echinopora forskaliana (EU498726), SEQ ID NO: 34 (protein, listed as Echinopora forskaliana)
chain: MSVIKQVMKTKLHLEGTVNGHDFTIEGKGEGKPYEGLQHMKMTVTKGAPLPFSVHILTPSHMYGSKPFNKYPADIPDYHKQSFPEGMSWERSMIFEDGGVCTASNHSSINLQENCFIYDVKFHGVNLPPDGPVMQKTIAGWEPSVETLYVRDGMLKSDTAMVFKLKGGGHHRVDFKTTYKAKKPVKLPEFHFVEHRLELTKHDKDFTTWDQQEAAEGHFSPLPKALP
B7: rmueGFP: green fluorescent protein from Renilla muelleri (AY015996), SEQ ID NO: 44 (protein, listed as Renilla muelleri)
chain: MSKQILKNTCLQEVMSYKVNLEGIVNNHVFTMEGCGKGNILFGNQLVQIRVTKGAPLPFAFDIVSPAFQYGNRTFTKYPNDISDYFIQSFPAGFMYERTLRYEDGGLVEIRSDINLIEDKFVYRVEYKGSNFPDDGPVMQKTILGIEPSFEAMYMNNGVLVGEVILVYKLNSGKYYSCHMKTLMKSKGVVKEFPSYHFIQHRLEKTYVEDGGFVEQHETAIAQMTSIGKPLGSLHEWV
B8: rfloRFP: red fluorescent protein from Ricordea florida (AY037773), SEQ ID NO: 42 (protein, listed as Ricordea florida)
chain: MSALKEEMKIKLTLVGVVNGHPFKIIGDGKGKPYEGSQELTLAVVEGGPLPFSYDILTTIVHYGNRAFVNYPKDIPDIFKQTCSGPGAGYSWQRTMSFEDGGVCTATSHIRVDGDTFNYDIHFMGADFPLNGPVMQKRTVKWEPSTEIMFQCDGLLRGDVAMSLLLKGGGHYRCDFKTIYKPKKNVKMPGYHFVDHCIEITSQQDDYNVVELYEGAVAHYSPLQKPCQAKA
B9: anm2CP: chromoprotein from Anthomedusae sp. SL-2003 (AY485336), SEQ ID NO: 48 (protein, listed as Anthomedusae sp.)
chain: MEGGPALFQSDMTFKIFIDGVVNDQKFTIIADGSSKFPHGDFNVHAVCETGKLPMSWKPICHLIQYGEPFFAKYPNGISHFAQECFPEGLTIDRTVRFENDGTMTSHHTYELDGTCVISRITVNCDGFQPDGPIMKDQLVDILPTETHMFPHGSNAVRQLCYIGFTTADGGLMMSHFDSKLTFNGSRAIKIPGPHFVTVIIKQMKDTSDKRDHVCQREVTYAHSVPRITSAI
B10: hcriCP: chromoprotein from Heteractis crispa (AF363776), SEQ ID NO: 32 (protein)
chain: MAGLLKESMRIKMYMEGTVNGHYFKCEGEGDGNPFTGTQSMRIHVTEGAPLPFAFDILAPCCEYGSRTFVHHTAEIPDFFKQSFPEGFTWERTTTYEDGGILTAHQDTSLEGNCLIYKVKVLGTNFPADGPVMKNKSGGWEPCTEVVYPENGVLCGRNVMALKVGDRRLICHLYTSYRSKKAVRALTMPGFHFTDIRLQMPRKKKDEYFELYEASVARYSDLPEKAN
modifications: Entacmaea quadricolor
B11: scubGFP: green fluorescent protein from Scolymia cubensis (AY037767), SEQ ID NO: 40 (protein, listed as Echinopora forskaliana)
chain: MQRAGMKVKEHMKIKLRMGGTVNGKHFAVNGTGDGYPYQGKQILKLIVEGSEPLPFAFDILSAAFQYGNRAFTEYPTEIADYFKQSFEFGEGFSWERSFTFEDGAICVATNDITMVGGEFQYDIRFDGLNFPEDGPVMQKKTVKWEPSTEIMYMQNGVLKGEVNMALLLQDKSHYRCDLKTTYKAKNNVPHPPGYHYVDHCIEILEERKDHVKLREHAKARSSLSPTSAKERKA

Test: In vitro H2O hydrolysis and oxygen evolution catalyzed by LEAT protein under light
Type: biochemical
Parameters: key to O2 evolution activity: +: similar O2 evolution activity as that of YFP; ++: higher O2 evolution activity than that of YFP by at least one order of magnitude; weak: lower activity than that of YFP by at least one order of magnitude
Settings: water hydrolysis and O2 evolution under light, relative to YFP
Procedure: 1.85 ml of 50 mM phosphate buffer (pH6.5) was added in the reaction vessel of Clark-type oxygen electrode, then LEAT proteins (at a final concentration of 0.02-1 μg/ml) and 400 μM 2,3,5-trimethyl-1,4-benzoquinone (TMBQ) or other quinones were sequentially added into the buffer in dark. The oxygen evolution rate was measured under the light with corresponding excitation wave length for LEAT proteins and light intensity at 1-2 μmol m^−2 s^−1.
In the case of B1, the O2 evolution activity is reported as “+”.
In the case of B2, the O2 evolution activity is reported as “+”.
With B3 the O2 evolution activity was “++”.
For B4, the O2 evolution activity was “++”.
For B5, the O2 evolution activity was “++”.
In the case of B6, the O2 evolution activity is reported as “+”.
With B7 the O2 evolution activity was “++”.
For B8, the O2 evolution activity was “++”.
With B9 the O2 evolution activity was “+”.
For B10, the O2 evolution activity was “+”.
For B11, the O2 evolution activity was “+”.

— patent publication US20170037425A1, “METHOD FOR IMPROVING PLANT TRAIT” (SHANGHAI INSTITUTES FOR BIOLOGICAL SCIENCES, CHINESE …, priority 2012, published 2017)
